From US20090192289A1 (Genentech, published 2009)
Where no end group is shown, it is not given here. The star is where a group is joined. Biotin = O=C1N[C@H]2[C@H](CS[C@H]2CCCCC(=O)*)N1

T1: GST-Omi PDZ fusion protein (human, UniProt O43464 359-458)
T1 construct: also called GST-hOmiPDZ; hOmi PDZ domain; not shown: glutathione S-transferase (GST) encoded by plasmid pGEX6P-3
T1 sequence: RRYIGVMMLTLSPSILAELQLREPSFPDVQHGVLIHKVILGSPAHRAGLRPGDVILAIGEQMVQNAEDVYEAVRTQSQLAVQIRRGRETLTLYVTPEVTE

T2: phage-displayed Omi PDZ (phagemid p8hOmi) (human; M13 bacteriophage)
T2 construct: Multivalent display on phage; not shown: M13 gene-8 coat protein
T2 chain: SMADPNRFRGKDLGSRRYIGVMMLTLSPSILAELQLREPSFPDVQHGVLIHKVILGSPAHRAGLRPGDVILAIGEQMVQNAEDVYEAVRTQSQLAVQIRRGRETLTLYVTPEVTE


Each binder was assayed against T1, GST-Omi PDZ fusion protein (assay: competition ELISA).
Description: (§1) Affinity Assays—The binding affinities of peptides for Omi PDZ were determined as IC₅₀ values using a previously described competition ELISA(18). The IC₅₀ value was defined as the concentration of peptide that blocked 50% of PDZ domain binding to immobilized peptide. Assay plates were prepared by immobilizing an amino-terminally biotinylated peptide (biotin-GWTMFWV) on maxisorp plates coated with NeuTravidin and blocked with BSA. A fixed concentration of GST-Omi PDZ fusion protein (20 nM) in PBS, 0.5% BSA, 0.1% Tween 20 (PBT buffer) was preincubated for 1 h with serial dilutions of peptide and then transferred to the assay plates. After 1 h incubation, the plates were washed with PBS, 0.05% Tween 20, incubated for 30 min with HRP/anti-GST antibody (1:10,000) in PBT buffer, washed again, and detected with 3,3′,5,5′-Tetramethyl-benzidine/H₂O₂ (TMB) peroxidase substrate.

| Binder | fold reduction of binding affinity vs … (hOmi_n1) [fold] | fold lower affinity vs SWTMFWV (hOmi_c1) [fold] | fold lower affinity vs … (hOmi_n1) [fold] | binding result | fold increase of IC50 vs SWTMFWV (hOmi_c1) [fold] | fold lower affinity vs the optimized peptide derived from libC (hOmi_c1) [fold] |
| --- | --- | --- | --- | --- | --- | --- |
| H-HWWGGWLG-NH2 [hOmi_n1_t6] | 3 |  |  |  |  |  |
| Ac-RFPHFWV-OH (synthetic peptide from libC; also called RFPHFWV) [hOmi_c2] |  | 50 |  |  |  |  |
| H-SHWW-NH2 (also called SHWW; tetrapeptide (SHWW)) [hOmi_n1_t5] |  |  | 3 |  |  |  |
| Ac-TMFWV-OH (also called TMFWV) [hOmi_c1_t2] |  | 15 |  |  |  |  |
| Ac-AWTMFWV-OH (also called AWTMFWV) [hOmi_c1_A7] |  |  |  | binds |  |  |
| Ac-SWTMFWA-OH (also called SWTMFWA) [hOmi_c1_A1] |  |  |  |  | 3 |  |
| Ac-WTMFWV-OH (also called WTMFWV) [hOmi_c1_t1] |  |  |  | binds |  |  |
| Ac-GQYYFV-OH (synthetic peptide, optimized ligand reported previously from a chemically synthesized library; also called GQYYFV) [PDZ-Opt] |  |  |  |  |  | 5 |

These binders were tested against T1, GST-Omi PDZ fusion protein (assay: phage ELISA on GST-Omi PDZ after three rounds of selection).
Description: Selection for Omi PDZ peptides—Previously described procedures were used to isolate peptides that bound to a GST-Omi PDZ fusion, using libraries of random decapeptides fused to either the C terminus(18) or octapeptide fused to the N terminus(19) of the M13 gene-8 major coat protein, designated as libC or libN, respectively. After three rounds of selection, individual clones were grown in a 96-well format in 500 μL of 2YT broth supplemented with carbenicillin, kanamycin and KO7, and the culture supernatants were used directly in phage ELISAs(19) to detect peptides that bound specifically to Omi PDZ. Peptide sequences derived from positive clones were aligned and tabulated. A total of 95 positive colonies from libC and 89 from libN were analyzed. (see Table II). […] The sequences were selected after three rounds of sorting with IPTG induction. Hydrophobic residues (A, F, I, L, M, V, W, Y) are italicized and bolded, n is the number of siblings.

| Binder | binding result |
| --- | --- |
| WGYWWGPGG (not fully specified (C-terminus), not shown: M13 gene-8 major coat protein (P8)) [libN phage-displayed peptide SEQ ID NO:51] | binds |
| GIAGFWWDG (not fully specified (C-terminus), 9 siblings; not shown: M13 gene-8 major coat protein (P8)) [libN phage-displayed peptide GIAGFWWDG] | binds |
| WIAGFWWDG (not fully specified (C-terminus), not shown: M13 gene-8 major coat protein (P8)) [libN phage-displayed peptide SEQ ID NO:56] | binds |
| ESLWWGWEG (not fully specified (C-terminus), 7 siblings; not shown: M13 gene-8 major coat protein (P8)) [libN phage-displayed peptide ESLWWGWEG] | binds |
| ATEFWWGVG (not fully specified (C-terminus), 10 siblings; not shown: M13 gene-8 major coat protein (P8)) [libN phage-displayed peptide SEQ ID NO:50] | binds |
| GDIVCTWGG (not fully specified (C-terminus), not shown: M13 gene-8 major coat protein (P8)) [libN phage-displayed peptide SEQ ID NO:53] | binds |
| GGFWWGPAG (not fully specified (C-terminus), 5 siblings; not shown: M13 gene-8 major coat protein (P8)) [libN phage-displayed peptide GGFWWGPAG] | binds |
| GIVWFWWDG (not fully specified (C-terminus), not shown: M13 gene-8 major coat protein (P8)) [libN phage-displayed peptide SEQ ID NO:55] | binds |
| AGDSWWWGG (not fully specified (C-terminus), 4 siblings; not shown: M13 gene-8 major coat protein (P8)) [libN phage-displayed peptide AGDSWWWGG] | binds |
| STDYWWGCG (not fully specified (C-terminus), not shown: M13 gene-8 major coat protein (P8)) [libN phage-displayed peptide SEQ ID NO:52] | binds |
| SSDYWWGCG (not fully specified (C-terminus), not shown: M13 gene-8 major coat protein (P8)) [libN phage-displayed peptide SEQ ID NO:54] | binds |

What follows are binders tested against T1, GST-Omi PDZ fusion protein (assay: competition ELISA, immobilized biotin-GWTMFWV).
Description: as §1

| Binder | binding result |
| --- | --- |
| H-SHWWGG-NH2 (also called SHWWGG) [hOmi_n1_t3] | no binding |
| H-WWGGWLG-NH2 (also called WWGGWLG) [hOmi_n1_t7] | no binding |
| H-WGGWLG-NH2 (also called WGGWLG) [hOmi_n1_t8] | no binding |
| H-SHWWG-NH2 (also called SHWWG) [hOmi_n1_t4] | no binding |

The binders below were run against T1, GST-Omi PDZ fusion protein (assay: competition ELISA, 20 nM GST-Omi PDZ, immobilized biotin-GWTMFWV as competitor).
Description: as §1

| Binder | IC50 [µM] |
| --- | --- |
| Ac-RFPHFWV-OH (synthetic peptide from libC; also called RFPHFWV) [hOmi_c2] | 162 |
| H-SHWW-NH2 (also called SHWW; tetrapeptide (SHWW)) [hOmi_n1_t5] | 72.2 |
| Ac-SWTMFWV-OH (synthetic peptide from libC; also called SWTMFWV) [hOmi_c1] | 3.3 |
| Ac-SWTMFWA-OH (also called SWTMFWA) [hOmi_c1_A1] | 10.6 |
| H-SHWWGGWL-NH2 [hOmi_n1_t1] | 17.6 |
| H-ATEFWWGVG-NH2 (synthetic peptide from libN) [hOmi_n4] | 32.4 |
| Ac-GQYYFV-OH (synthetic peptide, optimized ligand reported previously from a chemically synthesized library; also called GQYYFV) [PDZ-Opt] | 17.6 |
| H-SHWWGGW-NH2 (also called SHWWGGW) [hOmi_n1_t2] | 26 |
| H-SHWWGGWLG-NH2 (synthetic peptide from libN) [hOmi_n1] | 21.6 |
| Ac-MFWV-OH (also called MFWV) [hOmi_c1_t3] | 24.1 |

Target: T2, phage-displayed Omi PDZ (phagemid …)
Test: phage selection and phage ELISA on NeutrAvidin-immobilized peptide
Description: Library Sorting and Analysis—Phage from the libraries described above were propagated in E. coli XL1-blue with the addition of KO7 helper phage. After overnight growth at 37° C. (for peptide library) or 30° C. (for shotgun library), phage were concentrated by precipitation with PEG/NaCl and resuspended in PBS, 0.5% BSA, 0.1% Tween 20, as described previously(19). Phage solutions (10¹² phage/mL) were added to 96-well maxisorp immunoplates that had been coated with capture target and blocked with BSA. For shotgun library sorting, two different targets were used; for the display selection the target was an immobilized antibody that recognized the epitope tag fused to the N terminus of Omi PDZ, while for the function selection a biotinylated peptide that binds to Omi PDZ with high affinity (biotin-SWTMFWV) was immobilized on NeutrAvidin-coated plates. Following a 2 h incubation to allow for phage binding, the plates were washed 10 times with PBS, 0.05% Tween 20. Bound phage were eluted with 0.1 M HCl for 10 min and the eluent was neutralized with 1.0 M Tris base. Eluted phage were amplified in E. Coli XL1-blue and used for further rounds of selection.
Shotgun alanine-scanning of Omi PDZ domain—By superimposing the structure of Omi PDZ with the structure of Erbin PDZ-ligand complex(20), we identified a region that is directly involved or adjacent to the peptide binding site. […]

| Binder | binding result |
| --- | --- |
| Biotin-SWTMFWV (Immobilized on NeutrAvidin-coated plates for shotgun library sorting) [biotin-SWTMFWV] | binds |
